# Experimental data reported in PMC6499816 (2019).
# T1: FYCO1 (Homo sapiens (Human), UniProt Q9BQS8)
# T1 chain: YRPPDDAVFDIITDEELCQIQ
# T2: P62 (Homo sapiens (Human), UniProt Q13501)
# T2 chain: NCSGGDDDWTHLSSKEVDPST
# T3: ATG13 (Homo sapiens (Human), UniProt O75143)
# T3 chain: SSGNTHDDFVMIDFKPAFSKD
# B1: LC3C (protein)
# chain: MPPPQKIPSVRPFKQRKSLAIRQEEVAGIRAKFPNKIPVVVERYPRETFLPPLDKTKFLVPQELTMTQFLSIIRSRMVLRATEAFYLLVNNKSLVSMSATMAEIYRDYKDEDGFVYMTYASQETFG
# What was measured:
# Assay in all cases: BLI (biotin peptide on tip)
# FYCO1 = target: T1, FYCO1
# P62 = target: T2, P62
# ATG13 = target: T3, ATG13
binder,measurement,setting,value
B1,Kd,FYCO1,3000 nM
same,Kd,P62,2700 nM
same,Kd,ATG13,480 nM
